Laboratory results taken from paper PMC4072699, “A Remorin Gene SiREM6, the Target Gene of SiARDP, from Foxtail Millet (Setaria italica) Promotes High Salt Tolerance in Transgenic Arabidopsis”.

Assays:
SiARDP [1] = target: T1, SiARDP (Setaria italica, UniProt K3Z7V1 1-332); assay: competition; versus labeled P1; LightShift Chemiluminescent EMSA Kit (Thermo), manufacturer's protocol; buffer, salt, pH and temperature not stated; details: protein: recombinant
SiAREB1 = target: T2, SiAREB1 (Setaria italica, UniProt K3YTM2 1-357); assay: EMSA; LightShift Chemiluminescent EMSA Kit (Thermo), manufacturer's protocol; buffer, salt, pH and temperature not stated; details: protein: recombinant; chain copies: 2; label: biotin
T2 sequence: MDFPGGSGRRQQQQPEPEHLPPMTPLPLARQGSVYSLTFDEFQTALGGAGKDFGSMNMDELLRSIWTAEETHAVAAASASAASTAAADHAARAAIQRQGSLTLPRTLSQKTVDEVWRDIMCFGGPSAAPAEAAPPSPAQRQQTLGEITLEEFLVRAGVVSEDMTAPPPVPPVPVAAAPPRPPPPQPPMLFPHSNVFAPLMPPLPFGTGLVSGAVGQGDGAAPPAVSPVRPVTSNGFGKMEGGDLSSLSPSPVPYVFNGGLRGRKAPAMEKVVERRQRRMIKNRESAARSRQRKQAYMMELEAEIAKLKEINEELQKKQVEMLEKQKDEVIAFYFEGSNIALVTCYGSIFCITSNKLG

SiARDP [2] = target: T1, SiARDP; assay: as above; details: protein: recombinant; label: biotin
SiARDP [3] = target: T1, SiARDP; assay: competition; versus labeled P1; signal not obviously reduced; LightShift Chemiluminescent EMSA Kit (Thermo), manufacturer's protocol; buffer, salt, pH and temperature not stated; details: protein: recombinant
SiARDP [4] = target: T1, SiARDP; assay: competition; versus labeled P2; signal not obviously reduced; LightShift Chemiluminescent EMSA Kit (Thermo), manufacturer's protocol; buffer, salt, pH and temperature not stated; details: protein: recombinant
SiARDP [5] = target: T1, SiARDP; assay: competition; versus labeled P2; LightShift Chemiluminescent EMSA Kit (Thermo), manufacturer's protocol; buffer, salt, pH and temperature not stated; details: protein: recombinant

T1 sequence (K3Z7V1 entry or part of it): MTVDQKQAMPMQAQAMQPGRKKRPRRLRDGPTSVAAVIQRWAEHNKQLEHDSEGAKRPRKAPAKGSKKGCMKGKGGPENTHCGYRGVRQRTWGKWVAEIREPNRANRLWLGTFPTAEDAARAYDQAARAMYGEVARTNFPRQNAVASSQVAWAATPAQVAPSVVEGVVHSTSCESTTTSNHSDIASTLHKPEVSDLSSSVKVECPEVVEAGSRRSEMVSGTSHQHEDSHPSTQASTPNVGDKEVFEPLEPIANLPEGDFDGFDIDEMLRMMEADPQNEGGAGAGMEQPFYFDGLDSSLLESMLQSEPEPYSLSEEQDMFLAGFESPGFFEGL

B1: competitor 1 (DRE1) (dsDNA)
DNA 1: GCGATGGTCCTCACCGACGACGCCGCCCGC
DNA 2: GCGGGCGGCGTCGTCGGTGAGGACCATCGC
Q: Does B1 bind (SiARDP [1])?
A: Result: binds

B2: probe P1 (DRE1) (dsDNA)
DNA 1: GCGATGGTCCTCACCGACGACGCCGCCCGC
DNA 2: GCGGGCGGCGTCGTCGGTGAGGACCATCGC
Q: Does B2 bind (SiAREB1)?
A: Result: no binding

Q: Does B2 bind (SiARDP [2])?
A: Result: binds

B3: probe P2 (DRE2) (dsDNA)
DNA 1: ATGGGTTCCTTGCCGACTCTTCTTTTAACC
DNA 2: GGTTAAAAGAAGAGTCGGCAAGGAACCCAT
Q: Does B3 bind (SiAREB1)?
A: Result: no binding

B4: competitor 2 (mutant DRE1, ACCGAC to AAAAAC) (dsDNA)
DNA 1: GCGATGGTCCTCAAAAACGACGCCGCCCGC
DNA 2: GCGGGCGGCGTCGTTTTTGAGGACCATCGC
Q: Does B4 bind (SiARDP [3])?
A: Result: no binding

B5: competitor 4 (mutant DRE2, GCCGAC to GAAAAA) (dsDNA)
DNA 1: ATGGGTTCCTTGAAAAATCTTCTTTTAACC
DNA 2: GGTTAAAAGAAGATTTTTCAAGGAACCCAT
Q: Does B5 bind (SiARDP [4])?
A: Result: no binding

B6: probe P3 (ABRE) (dsDNA)
DNA 1: GCCGCGCGGGTACGTGCGAGCCCCGCGGTC
DNA 2: GACCGCGGGGCTCGCACGTACCCGCGCGGC
Q: Does B6 bind (SiAREB1)?
A: Result: no binding

Q: Does B6 bind (SiARDP [2])?
A: Result: no binding

B7: competitor 3 (DRE2) (dsDNA)
DNA 1: ATGGGTTCCTTGCCGACTCTTCTTTTAACC
DNA 2: GGTTAAAAGAAGAGTCGGCAAGGAACCCAT
Q: Does B7 bind (SiARDP [5])?
A: Result: binds
